The text below walks through data of PMC7414021, “Dodecin as carrier protein for immunizations and bioengineering applications” (Scientific Reports, 2020).

Experiment in all cases: SEC
Test [1] concerns the target mtDod-SpyT (Mycobacterium tuberculosis).
The target in test [2] is mtDod-GSG-Lys (Mycobacterium tuberculosis).
Test [3] deals with SpyT-mtDod-SnpT (Mycobacterium tuberculosis).
The target of test [4] is mtDod-msfGFP-H8 (Mycobacterium tuberculosis | not stated).
Test [5] has as its target SpyT-mtDod (Mycobacterium tuberculosis).
Test [6] deals with SpyT-PAS2-mtDod (Mycobacterium tuberculosis).
The target of test [7] is mtDod-PAS2-SpyT (Mycobacterium tuberculosis).
Test [8] addresses mtDod-PAS-Met (Mycobacterium tuberculosis).

Turning to mtDod-SpyT, in test [1], the stoichiometry N was 12.

The substance mtDod-GSG-Lys displayed a stoichiometry N in test [2] of 12.

On to SpyT-mtDod-SnpT, for which the stoichiometry N in test [3] was found to be 12. The substance mtDod-msfGFP-H8 yielded a stoichiometry N in test [4] of 12.

As for SpyT-mtDod, the stoichiometry N in test [5] amounted to 12. SpyT-PAS2-mtDod gave a stoichiometry N in test [6] of 12. With mtDod-PAS2-SpyT, the stoichiometry N in test [7] was 12. Substance mtDod-PAS-Met displayed a stoichiometry N in test [8] of 12.
